Measured values published in the Immune Epitope Database (IEDB).
pKd: −log10 of the molar value.

Tests used:
HLA-B*07:02 [1] = assay: IEDB peptide-MHC binding, purified MHC/competitive/radioactivity; filed as Kd, often an IC50 or EC50 that approximates it; ≥ and ≤ were set here for values at or beyond the usual limits of such assays
HLA-B*35:01 = assay: as above
HLA-B*51:01 = assay: as above
HLA-B*53:01 = assay: as above
HLA-B*54:01 = assay: as above
HLA-B*15:42 = assay: IEDB peptide-MHC binding, purified MHC/competitive/fluorescence; filed as Kd, often an IC50 or EC50 that approximates it; ≥ and ≤ were set here for values at or beyond the usual limits of such assays
HLA-B*45:06 = assay: as above
HLA-B*83:01 = assay: as above
HLA-B*08:01 [2] = assay: IEDB peptide-MHC binding, purified MHC/competitive/radioactivity; filed as Kd, often an IC50 or EC50 that approximates it; ≥ and ≤ were set here for values at or beyond the usual limits of such assays; conditions: source organism: Hepatitis C virus (isolate H)
HLA-A*24:03 = assay: IEDB peptide-MHC binding, purified MHC/direct/fluorescence; filed as Kd, often an IC50 or EC50 that approximates it; ≥ and ≤ were set here for values at or beyond the usual limits of such assays
HLA-A*01:01 = assay: as above; conditions: source organism: Campylobacter jejuni
HLA-A*02:01 [3] = assay: as above; conditions: source organism: Campylobacter jejuni RM1221
HLA-A*03:01 [4] = assay: as above; conditions: source organism: Campylobacter jejuni RM1221
HLA-A*11:01 [5] = assay: as above; conditions: source organism: Campylobacter jejuni RM1221
HLA-A*26:01 = assay: as above; conditions: source organism: Campylobacter jejuni RM1221
HLA-A*31:01 [6] = assay: as above; conditions: source organism: Campylobacter jejuni RM1221
HLA-A*69:01 = assay: as above; conditions: source organism: Campylobacter jejuni RM1221
HLA-B*07:02 [7] = assay: as above; conditions: source organism: Campylobacter jejuni RM1221
HLA-B*08:01 [8] = assay: as above; conditions: source organism: Campylobacter jejuni RM1221
HLA-B*15:01 = assay: as above; conditions: source organism: Campylobacter jejuni RM1221
HLA-B*27:05 = assay: as above; conditions: source organism: Campylobacter jejuni RM1221
HLA-B*40:01 = assay: as above; conditions: source organism: Campylobacter jejuni RM1221
HLA-B*44:02 = assay: as above; conditions: source organism: Campylobacter jejuni RM1221
HLA-B*58:01 = assay: as above; conditions: source organism: Campylobacter jejuni RM1221
HLA-A*02:02 = assay: IEDB peptide-MHC binding, purified MHC/competitive/radioactivity; filed as Kd, often an IC50 or EC50 that approximates it; ≥ and ≤ were set here for values at or beyond the usual limits of such assays; conditions: source organism: Vaccinia virus WR
HLA-A*02:03 = assay: as above; conditions: source organism: Vaccinia virus WR
HLA-A*02:06 = assay: as above; conditions: source organism: Vaccinia virus WR
HLA-A*03:01 [9] = assay: as above; conditions: source organism: Vaccinia virus WR
HLA-A*11:01 [10] = assay: as above; conditions: source organism: Vaccinia virus WR
HLA-A*31:01 [11] = assay: as above; conditions: source organism: Vaccinia virus WR
HLA-A*33:01 = assay: as above; conditions: source organism: Vaccinia virus WR
HLA-A*68:01 = assay: as above; conditions: source organism: Vaccinia virus WR
HLA-A*68:02 = assay: as above; conditions: source organism: Vaccinia virus WR
HLA-A*02:01 [12] = assay: as above; conditions: source organism: Vaccinia virus WR
[13] = source organism: SARS coronavirus Tor2
[14] = source organism: Human herpesvirus 4 strain B95-8
[15] = source organism: Vaccinia virus WR
[16] = source organism: Mammarenavirus whitewaterense
[17] = source organism: Hepatitis C virus (isolate H)
[18] = source organism: Triticum aestivum
[19] = source organism: Mycobacterium tuberculosis H37Rv
[20] = source organism: Mycobacterium tuberculosis C
[21] = source organism: human gammaherpesvirus 4
[22] = source organism: Mammarenavirus tacaribeense

APVSAMVRM
pKd (HLA-B*07:02 [1]; [13]): 6.80
pKd (HLA-B*35:01; [13]): 6.36
pKd (HLA-B*51:01; [13]): 5.75
pKd (HLA-B*53:01; [13]): 6.13
pKd (HLA-B*54:01; [13]): ≤ 4.63

CSDAFYPFY
pKd (HLA-B*15:42; [14]): ≤ 5.30
pKd (HLA-B*45:06; [14]): ≤ 5.30
pKd (HLA-B*83:01; [14]): ≤ 5.30

DPEKFNARM
pKd (HLA-B*07:02 [1]; [15]): ≤ 4.18
pKd (HLA-B*35:01; [15]): 6.02
pKd (HLA-B*51:01; [15]): 4.77
pKd (HLA-B*53:01; [15]): 5.89
pKd (HLA-B*54:01; [15]): ≤ 4.11

FPLKLRGTAV
pKd (HLA-B*07:02 [1]; [13]): 6.87
pKd (HLA-B*35:01; [13]): 5.34
pKd (HLA-B*51:01; [13]): 6.18
pKd (HLA-B*53:01; [13]): 5.35
pKd (HLA-B*54:01; [13]): 8.97

GPFEASWAI
pKd (HLA-B*07:02 [1]; [16]): 6.39
pKd (HLA-B*35:01; [16]): 6.10
pKd (HLA-B*51:01; [16]): 6.00
pKd (HLA-B*53:01; [16]): 6.60
pKd (HLA-B*54:01; [16]): 6.51

HPALVFDIT
pKd (HLA-B*08:01 [2]): 6.01
pKd (HLA-B*35:01; [17]): 8.25
pKd (HLA-B*51:01; [17]): 5.15
pKd (HLA-B*53:01; [17]): 6.19
pKd (HLA-B*54:01; [17]): 9.55

IPCMDVVL
pKd (HLA-B*07:02 [1]; [18]): ≤ 4.39
pKd (HLA-B*35:01; [18]): 4.79
pKd (HLA-B*51:01; [18]): 5.89
pKd (HLA-B*53:01; [18]): ≤ 4.39
pKd (HLA-B*54:01; [18]): ≤ 4.06

IPKGIMMNV
pKd (HLA-B*07:02 [1]; [13]): 6.89
pKd (HLA-B*35:01; [13]): ≤ 4.68
pKd (HLA-B*51:01; [13]): 5.08
pKd (HLA-B*53:01; [13]): ≤ 4.62
pKd (HLA-B*54:01; [13]): 7.83

KHIKPIVEF
pKd (HLA-A*24:03; source organism: Entamoeba histolytica): 7.15

KNDAVYIGY
pKd (HLA-A*01:01): 4.72
pKd (HLA-A*02:01 [3]): ≤ 4.70
pKd (HLA-A*03:01 [4]): ≤ 4.70
pKd (HLA-A*11:01 [5]): ≤ 4.70
pKd (HLA-A*24:03; source organism: Campylobacter jejuni RM1221): ≤ 4.70
pKd (HLA-A*26:01): ≤ 4.70
pKd (HLA-A*31:01 [6]): ≤ 4.70
pKd (HLA-A*69:01): ≤ 4.70
pKd (HLA-B*07:02 [7]): ≤ 4.70
pKd (HLA-B*08:01 [8]): ≤ 4.70
pKd (HLA-B*15:01): ≤ 4.70
pKd (HLA-B*27:05): ≤ 4.70
pKd (HLA-B*40:01): ≤ 4.70
pKd (HLA-B*44:02): ≤ 4.70
pKd (HLA-B*58:01): ≤ 4.70

KPTESACSSL
pKd (HLA-B*07:02 [1]; [13]): 7.23
pKd (HLA-B*35:01; [13]): 4.78
pKd (HLA-B*51:01; [13]): 5.37
pKd (HLA-B*53:01; [13]): 5.08
pKd (HLA-B*54:01; [13]): ≤ 4.30

LPYPDPSRIL
pKd (HLA-B*07:02 [1]; [13]): 5.42
pKd (HLA-B*35:01; [13]): ≤ 4.57
pKd (HLA-B*51:01; [13]): 6.00
pKd (HLA-B*53:01; [13]): 5.08
pKd (HLA-B*54:01; [13]): 5.02

MPEKRNVVV
pKd (HLA-B*07:02 [1]; [15]): 8.74
pKd (HLA-B*35:01; [15]): 6.39
pKd (HLA-B*51:01; [15]): 6.90
pKd (HLA-B*53:01; [15]): 6.40
pKd (HLA-B*54:01; [15]): 7.48

MPYNILDRII
pKd (HLA-B*07:02 [1]; [15]): 6.58
pKd (HLA-B*35:01; [15]): 5.79
pKd (HLA-B*51:01; [15]): 6.91
pKd (HLA-B*53:01; [15]): 7.34
pKd (HLA-B*54:01; [15]): 8.08

PYIDAADQF
pKd (HLA-A*24:03; source organism: Mycobacterium tuberculosis): 7.04

QIFEVYWYL
pKd (HLA-A*02:02): 8.95
pKd (HLA-A*02:03): 6.73
pKd (HLA-A*02:06): 7.72
pKd (HLA-A*03:01 [9]): 5.97
pKd (HLA-A*11:01 [10]): 7.17
pKd (HLA-A*31:01 [11]): 6.84
pKd (HLA-A*33:01): 6.11
pKd (HLA-A*68:01): 6.06
pKd (HLA-A*68:02): 8.05
pKd (HLA-B*07:02 [1]; [15]): 4.79
pKd (HLA-B*35:01; [15]): 5.19
pKd (HLA-B*51:01; [15]): 5.26
pKd (HLA-B*53:01; [15]): 5.85
pKd (HLA-B*54:01; [15]): ≤ 5.30

QPFPPQQPY
pKd (HLA-B*07:02 [1]; [18]): ≤ 4.11
pKd (HLA-B*35:01; [18]): 6.52
pKd (HLA-B*51:01; [18]): ≤ 4.11
pKd (HLA-B*53:01; [18]): ≤ 4.11
pKd (HLA-B*54:01; [18]): ≤ 4.11

RLLIWAYLSK
pKd (HLA-A*02:01 [12]): 5.30
pKd (HLA-A*02:02): ≤ 4.37
pKd (HLA-A*02:03): 4.76
pKd (HLA-A*02:06): 4.83
pKd (HLA-A*03:01 [9]): 9.80
pKd (HLA-A*11:01 [10]): 9.94
pKd (HLA-A*31:01 [11]): 6.35
pKd (HLA-A*33:01): 5.31
pKd (HLA-A*68:01): 5.83
pKd (HLA-A*68:02): ≤ 4.39
pKd (HLA-B*07:02 [1]; [15]): ≤ 4.16
pKd (HLA-B*35:01; [15]): ≤ 4.16
pKd (HLA-B*51:01; [15]): ≤ 4.47
pKd (HLA-B*53:01; [15]): 4.98
pKd (HLA-B*54:01; [15]): 4.95

SPAAYVLPL
pKd (HLA-B*15:42; [19]): ≤ 5.30
pKd (HLA-B*45:06; [19]): ≤ 5.30
pKd (HLA-B*83:01; [19]): 6.81

SVMAIFYLR
pKd (HLA-B*15:42; [20]): ≤ 5.30
pKd (HLA-B*45:06; [20]): ≤ 5.30
pKd (HLA-B*83:01; [20]): ≤ 5.30

TPNNLNKIQL
pKd (HLA-B*07:02 [1]; [15]): 7.19
pKd (HLA-B*35:01; [15]): 5.35
pKd (HLA-B*51:01; [15]): ≤ 4.16
pKd (HLA-B*53:01; [15]): 5.53
pKd (HLA-B*54:01; [15]): 4.87

TVLGLGLSLK
pKd (HLA-A*02:01 [12]): ≤ 4.16
pKd (HLA-A*02:02): ≤ 4.21
pKd (HLA-A*02:03): ≤ 4.15
pKd (HLA-A*02:06): ≤ 4.29
pKd (HLA-A*03:01 [9]): 7.71
pKd (HLA-A*11:01 [10]): 8.79
pKd (HLA-A*31:01 [11]): 6.05
pKd (HLA-A*33:01): 4.84
pKd (HLA-A*68:01): 7.13
pKd (HLA-A*68:02): ≤ 4.16
pKd (HLA-B*07:02 [1]; [15]): ≤ 4.16
pKd (HLA-B*35:01; [15]): ≤ 4.62
pKd (HLA-B*51:01; [15]): ≤ 4.21
pKd (HLA-B*53:01; [15]): ≤ 4.16
pKd (HLA-B*54:01; [15]): ≤ 4.16

VPRPRFSAL
pKd (HLA-B*15:42; [21]): ≤ 5.30
pKd (HLA-B*45:06; [21]): ≤ 4.70
pKd (HLA-B*83:01; [21]): 6.97

VPYCNYTRFW
pKd (HLA-B*07:02 [1]; [22]): 5.45
pKd (HLA-B*35:01; [22]): 5.47
pKd (HLA-B*51:01; [22]): 5.99
pKd (HLA-B*53:01; [22]): 7.80
pKd (HLA-B*54:01; [22]): ≤ 4.65

YPQPQPQY
pKd (HLA-B*07:02 [1]; [18]): ≤ 4.06
pKd (HLA-B*35:01; [18]): 6.33
pKd (HLA-B*51:01; [18]): 4.71
pKd (HLA-B*53:01; [18]): 5.27
pKd (HLA-B*54:01; [18]): ≤ 4.15
